The labels stand for the following.
B1: Interleukin-27 subunit beta (Homo sapiens), Q14213 (parent)
chain: MTPQLLLALVLWASCPPCSGRKGPPAALTLPRVQCRASRYPIAVDCSWTLPPAPNSTSPVSFIATYRLGMAARGHSWPCLQQTPTSTSCTITDVQLFSMAPYVLNVTAVHPWGSSSSFVPFITEHIIKPDPPEGVRLSPLAERQLQVQWEPPGSWPFPEIFSLKYWIRYKRQGAARFHRVGPIEATSFILRAVRPRARYYVQVAAQDLTDYGELSDWSLPATATMSLGK
partner: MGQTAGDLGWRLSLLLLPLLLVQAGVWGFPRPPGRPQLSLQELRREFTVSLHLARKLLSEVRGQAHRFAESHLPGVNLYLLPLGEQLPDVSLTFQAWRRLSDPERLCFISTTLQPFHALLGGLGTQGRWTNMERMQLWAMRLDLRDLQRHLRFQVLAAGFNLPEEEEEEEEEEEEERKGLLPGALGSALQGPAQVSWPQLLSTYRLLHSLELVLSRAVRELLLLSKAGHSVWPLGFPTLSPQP
B2: Interleukin-27 subunit alpha (Homo sapiens), Q8NEV9 (parent)
chain: B1 partner
partner: B1 chain

The variants in one assay derive from B1. To be noted: with il27a_human IL27, Q8NEV9.
As for MTPQLLLALVLWASCPPCSGRKGPPAALTLPRVQCRASRYPIAVDCSWTLPPAPNSTSPVSFIATYRLGMAARGHSWPCLQQTPTSTSCTITDVQLFSMAPYVLNVTAVHPWGSSSSFVPFITEHIIKPDPPEGVRLSPLAERQLQVQWEPPGSWPFPAIFSLKYWIRYKRQGAARFHRVGPIEATSFILRAVRPRARYYVQVAAQDLTDYGELSDWSLPATATMSLGK [E159A], the “effect of a mutation on the interaction” value is listed as “decreasing interaction”.
MTPQLLLALVLWASCPPCSGRKGPPAALTLPRVQCRASRYPIAVDCSWTLPPAPNSTSPVSFIATYRLGMAARGHSWPCLQQTPTSTSCTITDVQLFSMAPYVLNVTAVHPWGSSSSFVPFITEHIIKPDPPEGVRLSPLAERQLQVQWEPPGSWPFPEIFSLKYWIRYKRQGAARFHRVGPIEATSFILRAVRPRARYYVQVAAQDLTAYGELSDWSLPATATMSLGK [D210A]: the “effect of a mutation on the interaction” value is on record as “disrupting interaction”.
The same measure, in the same setting: the entry for MTPQLLLALVLWASCPPCSGRKGPPAALTLPRVQCRASRYPIAVDCSWTLPPAPNSTSPVSFIATYRLGMAARGHSWPCLQQTPTSTSCTITDVQLASMAPYVLNVTAVHPWGSSSSFVPFITEHIIKPDPPEGVRLSPLAERQLQVQWEPPGSWPFPEIFSLKYWIRYKRQGAARFHRVGPIEATSFILRAVRPRARYYVQVAAQDLTDYGELSDWSLPATATMSLGK [F97A] is “decreasing interaction”.

The variants in the next assay derive from B2. To be noted: with il27b_human EBI3, Q14213.
Take MGQTAGDLGWRLSLLLLPLLLVQAGVWGFPRPPGRPQLSLQELRREFTVSLHLARKLLSEVRGQAHRFAESHLPGVNLYLLPLGEQLPDVSLTFQAARRLSDPERLCFISTTLQPFHALLGGLGTQGRWTNMERMQLWAMRLDLRDLQRHLRFQVLAAGFNLPEEEEEEEEEEEEERKGLLPGALGSALQGPAQVSWPQLLSTYRLLHSLELVLSRAVRELLLLSKAGHSVWPLGFPTLSPQP [W97A]: the “effect of a mutation on the interaction” value is “disrupting interaction”.
On the same count and under the same terms, the entry for MGQTAGDLGWRLSLLLLPLLLVQAGVWGFPRPPGRPQLSLQELRREFTVSLHLARKLLSEVRGQAHRFAESHLPGVNLYLLPLGEQLPDVSLTFQAWRRLSDPERLCFISTTLQPFHALLGGLGTQGRWTNMERMQLWAMRLDLRDLQRHLRFQVLAAGFNLPEEEEEEEEEEEEERKGLLPGALGSALQGPAQVSAPQLLSTYRLLHSLELVLSRAVRELLLLSKAGHSVWPLGFPTLSPQP [W197A] is “increasing interaction”.
